Patent US11433099B2, “Immunotherapy with B*08 restricted peptides and combination of peptides against cancers and related methods” (Immatics Biotechnologies GmbH, priority 2018, dated 2022)

Assays:
HLA-B*44:05 = HLA-B*44:05 (Homo sapiens, UniProt P01889, A223V/A65T/A93T/A95T/D201E/D98Y/E176V/E187L/E204Q/E69K/G107R/H137Y/K202T/L105A/L119I/N104T/N87E/Q56L/Q94N/R106L/R155S/R180D/S101N/S121R/S35A/S48T/T118I/V36M/W191S/Y91S); assay: MHC binding assay (UV-ligand exchange, beta2m ELISA); settings: Table 11B, peptide exchange yield
Procedure, shortened: (§1)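 Peptide–HLA complexes generated by UV-ligand exchange of a UV-cleavable peptide for the test peptide; exchange yield read by β2m ELISA on streptavidin capture (samples diluted 100-fold, 1 h 37 °C), HRP anti-β2m, TMB, A450. Quantified against refolded HLA-A*02:01/MLA-001 monomer standards (15-500 ng/ml).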

HLA-A*02:01 = HLA-A*02:01 (Homo sapiens, UniProt P04439, D140Y/D185E/D98H/E176V/E277Q/G131W/G231S/I119V/I121R/I166T/I218V/L300P/L318F/N151K/N90K/P208A/P217A/Q86G/Q94H/R138H/R169H/T345S); assay: as above; settings: Table 11C, peptide exchange yield
Procedure, shortened: as §1

Row | Peptide exchange (HLA-B*44:05) | Peptide exchange (HLA-A*02:01) | Substance
1 | +++ (≥50% = +++) |  | 290 (EEFLTPKKL; listed as Homo sapiens) [compound 290]
2 |  | ++++ (≥75% = ++++) | 291 (YVYANHFTEA; listed as Homo sapiens) [compound 291]
